Laboratory results taken from patent publication US20050037969A1 (ARBOR VITA, published 2005).
Ends that are not written are not given here. * marks the point of attachment. Biotin = O=C1N[C@H]2[C@H](CS[C@H]2CCCCC(=O)*)N1

T1: GST-41.8 kD protein (KIAA0751) PDZ domain fusion protein (Mus musculus (Mouse), UniProt Q9EQZ7 682-763)
T1 construct: also called 41 kd; hypoth; not shown: glutathione S-transferase encoded by vector pGEX-3X (Pharmacia)
T1 sequence: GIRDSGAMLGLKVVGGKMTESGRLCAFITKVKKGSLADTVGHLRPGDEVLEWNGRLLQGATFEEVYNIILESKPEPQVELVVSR

T2: KIAA0807 (PDZ domain)-GST fusion protein (human, UniProt Q6P0Q8 1104-1192)
T2 construct: also called K807; KIAA807; not shown: glutathione S-transferase encoded by vector pGEX-3X (Pharmacia)
T2 sequence: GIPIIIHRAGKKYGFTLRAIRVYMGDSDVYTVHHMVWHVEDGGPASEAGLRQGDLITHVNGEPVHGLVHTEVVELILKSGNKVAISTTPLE

T3: GST-AF6 PDZ domain fusion protein (Homo sapiens (Human), UniProt P55196 1001-1093)
T3 construct: also called af-6 protein; not shown: glutathione S-transferase encoded by vector pGEX-3X (Pharmacia)
T3 sequence: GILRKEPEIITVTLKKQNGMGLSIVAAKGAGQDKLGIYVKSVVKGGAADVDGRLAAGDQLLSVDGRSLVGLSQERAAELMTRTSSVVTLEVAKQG


How the values were obtained:
[1] = molecular target: T4, GST-PSD95 fusion protein (PDZ domains 1-3) (human, UniProt P31016 56-395 (rat entry)); assay: A/G assays
T4 construct: also called human post-synaptic density protein 95; not shown: glutathione S-transferase encoded by vector pGEX-3X (Pharmacia)
T4 sequence (P31016 other isoform, or with tags, fused parts or gaps): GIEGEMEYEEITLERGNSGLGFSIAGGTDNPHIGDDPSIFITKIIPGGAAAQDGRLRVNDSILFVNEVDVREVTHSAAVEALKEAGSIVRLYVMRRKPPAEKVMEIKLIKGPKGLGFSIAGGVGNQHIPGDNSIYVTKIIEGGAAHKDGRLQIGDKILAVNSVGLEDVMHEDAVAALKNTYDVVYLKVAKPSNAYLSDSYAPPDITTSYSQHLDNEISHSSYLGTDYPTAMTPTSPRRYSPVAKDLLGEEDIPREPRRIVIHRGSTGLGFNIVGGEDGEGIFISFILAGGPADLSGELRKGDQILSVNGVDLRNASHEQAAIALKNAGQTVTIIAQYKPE

[2] = molecular target: T5, NSP PDZ-GST fusion protein (Homo sapiens (Human), UniProt Q92743 370-466); assay: A/G assays
T5 construct: The label NSP is not explained in the excerpts
T5 sequence (Q92743 other isoform, or with tags, fused parts or gaps limits assumed): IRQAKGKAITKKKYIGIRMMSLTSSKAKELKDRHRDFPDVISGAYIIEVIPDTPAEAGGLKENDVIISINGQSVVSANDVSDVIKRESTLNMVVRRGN

[3] = molecular target: T1, GST-41.8 kD protein (KIAA0751) PDZ …; assay: A/G assays
[4] = molecular target: T4, GST-PSD95 fusion protein (PDZ domains …); assay: G assay: biotinylated peptide on plate-bound GST-PDZ fusion, OD 450 nm
[5] = molecular target: T1, GST-41.8 kD protein (KIAA0751) PDZ …; assay: G assay: biotinylated peptide on plate-bound GST-PDZ fusion, OD 450 nm; no GST-alone bar on the sheet
[6] = molecular target: T4, GST-PSD95 fusion protein (PDZ domains …); assay: A/G plate assays, Table 2 matrix
[7] = molecular target: T2, KIAA0807 (PDZ domain)-GST fusion protein; assay: A/G plate assays, Table 2 matrix
[8] = molecular target: T4, GST-PSD95 fusion protein (PDZ domains …); assay: G assay: biotinylated peptide on plate-bound GST-PDZ fusion, streptavidin-HRP, OD 450 nm
[9] = molecular target: T1, GST-41.8 kD protein (KIAA0751) PDZ …; assay: as above
[10] = molecular target: T3, GST-AF6 PDZ domain fusion protein; assay: A/G plate assays, Table 2 matrix
[11] = molecular target: T1, GST-41.8 kD protein (KIAA0751) PDZ …; assay: A/G plate assays, Table 2 matrix

Row | Binder | binding result [1] | binding result [2] | binding result [3] | further results
1 | Biotin-LERTSSVSPSTAEPELSIVF (Only the last four residues are seen in the excerpts) [CC CKR-3 C-terminal peptide AA43L] | no binding | no binding | no binding | 
2 | Biotin-ISKATPALPTVSISSSAEV (also called AA1L-R) [Clasp-1 C-terminal peptide AA1L, biotinylated] |  | no binding | no binding | 
3 | Biotin-DTPSSSYTQSTMDHDLHDAL (Only the last four residues are seen in the excerpts) [CC CKR-4 C-terminal peptide AA44L] |  | no binding |  | binding result [4]: no binding; binding result [5]: no binding
4 | Biotin-ENLAPVTTFGKTNGYIA (also called CD148 (DEP-1)) [CD148 C-terminal peptide AA19L, biotinylated] | no binding | no binding | no binding | 
5 | Biotin-LASKSAEEGKQIPDSLSTDL [DOCK2 C-terminal peptide AA40L, biotinylated] |  | no binding | no binding | binding result [6]: binds
6 | Biotin-KKGTYLTDETHREVKFTSL [CD46 (Form 1) C-terminal peptide AA10L, biotinylated] |  | no binding | no binding | binding result [7]: binds; binding result [8]: binds
7 | Biotin-LNFPLLQGIRVHGMEALGSF (Only the last four residues are seen in the excerpts) [CD114 (G-CSFR) C-terminal peptide AA27L] | no binding | no binding | no binding | 
8 | Biotin-VTSPNKHLGLVTPHKTELV [CD83 C-terminal peptide AA47L, biotinylated] |  | no binding |  | binding result [5]: no binding; binding result [8]: binds
9 | Biotin-KENDYESISDLQQGRDITRL (also called Phosphoprotein Associated with GEMs) [PAG C-terminal peptide AA58L, biotinylated] | no binding | no binding | no binding | binding result [7]: binds
10 | Biotin-PYGTAMEKAQLKPPATSDA (also called CD49E (alpha-4)) [CD49E C-terminal peptide AA11L, biotinylated] |  | no binding |  | binding result [4]: no binding; binding result [9]: binds
11 | Biotin-ARHRVTSYTSSSVNVSSNL [CDW128A (IL8RA) C-terminal peptide AA29.1L, biotinylated] |  | no binding |  | binding result [4]: no binding; binding result [5]: no binding
12 | Biotin-LERVSSTSPSTGEHELSAGF (Only the last four residues are seen in the excerpts) [CC CKR-1R C-terminal peptide AA41L] |  | no binding |  | binding result [4]: no binding; binding result [5]: no binding
13 | Biotin-QGDPALQDAGDSSRKEYFI (also called GC) [Glycophorin C C-terminal peptide AA37L, biotinylated] |  | no binding |  | binding result [6]: binds; binding result [10]: binds; binding result [11]: binds
14 | Biotin-SSKSKSSEESQTFFGLYKL (not fully specified, also called FasLigand; Fas ligand) [FasL C-terminal peptide AA23L-M, biotinylated] | no binding | no binding | no binding | 
15 | Biotin-QFMTADETRNLQNVDMKIGV (also called CD44 (long form)) [CD44 C-terminal peptide AA9L, biotinylated] | no binding | no binding | no binding | 
16 | Biotin-GTSDMKDLVGNIEQNEHSVI (Only the last four residues are seen in the excerpts) [Mannose receptor C-terminal peptide AA31L] | no binding | no binding | no binding | 

Row | Binder | binding result [1] | binding result [2] | binding result [3] | further results
17 | Biotin-YSATYSELEDPGEMSPPIDL (also called FceRlb; FcεRβI) [FceRIb C-terminal peptide AA25L, biotinylated] |  | no binding |  | binding result [4]: no binding; binding result [5]: no binding
18 | Biotin-SVFSIPTLWSPWPPSSSSQL (also called CD3η; CD3-eta) [CD3n C-terminal peptide AA4L, biotinylated] |  | no binding |  | binding result [7]: binds; binding result [6]: binds; binding result [9]: binds
19 | Biotin-CAISGTSSDRGYGSPRYAEV (also called AA3L-V) [Clasp-4 C-terminal peptide AA3L, biotinylated] |  | no binding |  | 
20 | Biotin-SSGGRARHSYHHPDQDHWC (Marked (S), sticky peptide with high background; also called V-gated Ca2+ channel (S)) [V-gated Ca2+ channel C-terminal peptide AA46L] | no binding |  | no binding | 
21 | Biotin-AWDDSARAAGGQGLHVTAL [LPAP C-terminal peptide AA30L, biotinylated] | no binding | no binding | no binding | binding result [7]: binds
22 | Biotin-SPQPDSTDNDDYDDISAA [CD6 C-terminal peptide AA6L, biotinylated] | no binding | no binding |  | binding result [11]: binds
23 | Biotin-KDSRPSFVGSSSGHTSTTL (also called CDW128E (IL8RB)) [CDW128B (IL8RB) C-terminal peptide AA29.2L, biotinylated] |  | no binding |  | binding result [7]: binds; binding result [6]: binds; binding result [11]: binds
24 | Biotin-SMQPDNSSDSDYDLHGAQRL (Only the last four residues are seen in the excerpts) [CD5 C-terminal peptide AA49L] | no binding | no binding | no binding | 
25 | Biotin-DLGNMEENKKLEENNHKTEA (also called CD166 (CD6L)) [CD166 C-terminal peptide AA20L, biotinylated] |  | no binding | no binding | binding result [4]: no binding
26 | Biotin-SSSQSLESDGSYQKPSYIL (Only the last four residues are seen in the excerpts) [CD62E C-terminal peptide AA48L] | no binding | no binding | no binding | 
27 | Biotin-HKAEIHAQPSDKERLTSDA (also called CD49F (Aform, alpha6)) [CD49F C-terminal peptide AA12L, biotinylated] | no binding | no binding |  | binding result [11]: binds
28 | Biotin-GKGKSIGRAPEASLQDKEGA (Only the last four residues are seen in the excerpts) [CC CKR-2 C-terminal peptide AA42L] |  | no binding |  | binding result [4]: no binding; binding result [5]: no binding
29 | Biotin-QATSENGHSARQHVVADTEL [CD34 C-terminal peptide AA7L, biotinylated] |  | no binding | no binding | 
30 | Biotin-QEEDGCSCRFPEEEEGGCEL (cysteine pairing not given here, Marked (S), sticky peptide with high background; also called CDw137 (4-1BB ILA) (S)) [CDw137 (4-1BB ILA) C-terminal peptide AA21L] | no binding |  | no binding | 
31 | Biotin-TSGTGHNQTRALRASESGI (also called CD97 (CD55L)) [CD97 C-terminal peptide AA14L, biotinylated] |  | no binding |  | binding result [11]: binds; binding result [4]: no binding
